In the assay the test system is RAJI cells. Kind of assay: JNG assay, co-culture with RAJI cells. It is filed as cell-based. The conditions noted are these: JNG cells expressing construct, co-culture with Raji. As for the experimental part:
Cellular supernatant is collected and assayed for the induction of cytokines (e.g., IL2).
JNG (Jurkat cells expressing EGFP under an NFAT promoter) were infected with lentiviral vectors encoding different single chain and multi-chain SARs by spinfection in the presence of 8 µg/ml of Polybrene® (Sigma, Catalog no. H9268). The Jurkat-NFAT-GFP cells are engineered in such a way that the IL-2 promoter, which carries NFAT binding sites, is cloned upstream of the GFP gene. These cells have been used to study signaling via TCR and CAR. The different SARs were stably expressed in Jurkat NFAT-GFP cells by lentiviral mediated gene transfer, followed by selection with puromycin or blasticidin. No drug selection was used in case the construct lacked an antibiotic resistance gene. The SAR-expressing Jurkat-NFAT-GFP cells were cocultured with the target cells at E:T ratio of approximately 1:2 for approximately 4 hours to 18 hours. When the interaction between SIRs and their target antigen results in activation of the NFAT pathway, GFP expression is induced. […] GFP expression was monitored by FACS analysis. The Jurkat-NFAT-GFP (parental) cells were used as control. The structure of different constructs can be determined based on their names. […] The sequence of the other constructs in the table can be similarly determined from their names and by referring to the different Tables of this disclosure that provide the names and SEQ ID NO of the different modules. Alternatively, the composition and modular architecture of the different SAR constructs can be determined from their sequences by bioinformatics tools, including using nucleic acid and amino acids homology searches. A SAR is considered positive in the assay in case the SAR expressing Jurkat-NFAT-GFP cells show greater % GFP positive cells when cultured with the target cell line as compared to parental Jurkat-NFAT-GFP cells. […] In general, the number +/-, +, 2+, 3+, 4+, 5+ refer to approximately 5%, 10%, 20%, 30%, 40% and 50% GFP positive cells. The % of GFP induction in the above assay is dependent not only the relative strength of the SAR but also, among other factors, on the relative level of expression of the SAR in the JNG cells and the relative level of expression of the target antigen in the target cell line. To control for the difference in gene transduction efficiency of the different SAR constructs, the experiment was conducted with JNG cells transduced with SAR constructs co-expressing a drug resistance gene (e.g., puromycin or PAC) followed by drug selection to generate a stable population of SAR-expressing cells. It is to be noted that the drug resistance gene (e.g., PAC) in the SAR constructs is optional and in vivo studies were conducted with SAR constructs lacking the PAC gene.

B1: 22001 (protein)
chain: MALPVTALLLPLALLLHAARPQLQLQESGPGLVKPSETLSLTCTVSGDSISSGDYYWGWIRQPPGKGLEWIGHIYYSGVTYYNPSLKSRVTISVDTSRNQFSLKLSSVTAADTAVYYCTREDSSNWRSRGQGTLVTVSSLEPGGGGSPEDLKNVFPPEVAVFEPSEAEISHTQKATLVCLATGFYPDHVELSWWVNGKEVHSGVCTDPQPLKEQPALNDSRYCLSSRLRVSATFWQNPRNHFRCQVQFYGLSENDEWTQDRAKPVTQIVSAEAWGRADCGFTSESYQQGVLSATILYEILLGKATLYAVLVSALVLMAMVKRKDSRGRAKRSGSGATNFSLLKQAGDVEENPGPTSMDWIWRILFLVGAATGAHSFEVQLLESGGGLIQPGGSLRLSCAASGFTFSSHAMTWVRQAPGKGLEWVSAISGSGDYTHYADSVKGRFTISRDNSKNTVYLQMNSLRAEDSAVYYCAKDEDGGSLLGHRGQGTLVTVSSTRIQNPDPAVYQLRDSKSSDKSVCLFTDFDSQTNVSQSKDSDVYITDKCVLDMRSMDFKSNSAVAWSNKSDFACANAFNNSIIPEDTFFPSPESSCDVKLVEKSFETDTNLNFQNLSVIGFRILLLKVAGFNLLMTLRLWSSRAKRSGSGVKQTLNFDLLKLAGDVESNPGPSRGHMTEYKPTVRLATRDDVPRAVRTLAAAFADYPATRHTVDPDRHIERVTELQELFLTRVGLDIGKVWVADDGAAVAVWTTPESVEAGAVFAEIGPRMAELSGSRLAAQQQMEGLLAPHRPKEPAWFLATVGVSPDHQGKGLGSAVVLPGVEAAERAGVPAFLETSAPRNLPFYERLGFTVTADVEVPEGPRTWCMTRKPGA
Take B1: the “NFAT-GFP ASSAY: Raji” value was “+/- (refer to approximately 5%, 10%, 20%, 30%, 40% and 50% GFP positive cells)”.

B2: 22006 (protein)
chain: MALPVTALLLPLALLLHAARPLEGKPIPNPLLGLDSTGSGEDLKNVFPPEVAVFEPSKAEIAHTQKATLVCLATGFYPDHVELSWWVNGKEVHSGVCTDPQPLKEQPALNDSRYCLSSRLRVSATFWQNPRNHFRCQVQFYGLSENDEWTQDRAKPVTQIVSAEAWGRADCGITSASYHQGVLSATILYEILLGKATLYAVLVSALVLMAMVKRKDSRGRAKRSGSGATNFSLLKQAGDVEENPGPTSTMALPVTALLLPLALLLHAARPEVQLVESGGGLVQPGGSLRLSCTFSGGTFSSYTMGWFRQAPGKEREFVAEVRWGGVTTYSNSLKDRFSISEDSVKNAVYLQMNSLKPEDTAVYYCAAVRQMYMTVVPDYWGQGTLVTVSSTREQKLISEEDGSGIQNPDPAVYQLRDSKSSDKSVCLFTDFDSQTNVSQSKDSDVYITDKCVLDMRSMDFKSNSAVAWSNKSDFACANAFNNSIIPEDTFFPSSDVPCDVKLVEKSFETDTNLNFQNLSVIGFRILLLKVAGFNLLMTLRLWSSRAKRSGSGVKQTLNFDLLKLAGDVESNPGPSRGHMTEYKPTVRLATRDDVPRAVRTLAAAFADYPATRHTVDPDRHIERVTELQELFLTRVGLDIGKVWVADDGAAVAVWTTPESVEAGAVFAEIGPRMAELSGSRLAAQQQMEGLLAPHRPKEPAWFLATVGVSPDHQGKGLGSAVVLPGVEAAERAGVPAFLETSAPRNLPFYERLGFTVTADVEVPEGPRTWCMTRKPGA
Turning to B2, the “NFAT-GFP ASSAY: Raji” value is “+ (refer to approximately 5%, 10%, 20%, 30%, 40% and 50% GFP positive cells)”.

The values above are taken from US20230212319A1, “NOVEL ANTIGEN BINDING DOMAINS AND SYNTHETIC ANTIGEN RECEPTORS INCORPORATING THE SAME” (University of Southern California, priority 2020, published 2023).
